Assay results published in patent US20180230218A1.
Where a chain is given by its changes, count along the chain named. One block for each binder: values may come before it.

Legend:
[1] = target: human cMET (MET, c-Met, HGF receptor) on cells (human) (UniProt P08581); assay: flow cytometry (FACS) on EBC-1 cells endogenously expressing human cMet, fluorescent secondary antibody
[2] = target: human cMET (MET, c-Met, HGF receptor) on cells (human) (UniProt P08581); assay: cell-based or functional assay
[3] = target: human cMET (MET, c-Met, HGF receptor) on cells (human) (UniProt P08581); assay: flow cytometry (FACS), direct binding to NCI-H441 cells expressing human cMET
[4] = target: human cMET (MET, c-Met, HGF receptor) on cells (human) (UniProt P08581); assay: flow cytometry on MET-expressing BxPC3 cells, FITC anti-human IgG; 'affinity' (apparent)

Chain of human cMET (MET, c-Met, HGF receptor) on cells (human) (P08581 25-1390): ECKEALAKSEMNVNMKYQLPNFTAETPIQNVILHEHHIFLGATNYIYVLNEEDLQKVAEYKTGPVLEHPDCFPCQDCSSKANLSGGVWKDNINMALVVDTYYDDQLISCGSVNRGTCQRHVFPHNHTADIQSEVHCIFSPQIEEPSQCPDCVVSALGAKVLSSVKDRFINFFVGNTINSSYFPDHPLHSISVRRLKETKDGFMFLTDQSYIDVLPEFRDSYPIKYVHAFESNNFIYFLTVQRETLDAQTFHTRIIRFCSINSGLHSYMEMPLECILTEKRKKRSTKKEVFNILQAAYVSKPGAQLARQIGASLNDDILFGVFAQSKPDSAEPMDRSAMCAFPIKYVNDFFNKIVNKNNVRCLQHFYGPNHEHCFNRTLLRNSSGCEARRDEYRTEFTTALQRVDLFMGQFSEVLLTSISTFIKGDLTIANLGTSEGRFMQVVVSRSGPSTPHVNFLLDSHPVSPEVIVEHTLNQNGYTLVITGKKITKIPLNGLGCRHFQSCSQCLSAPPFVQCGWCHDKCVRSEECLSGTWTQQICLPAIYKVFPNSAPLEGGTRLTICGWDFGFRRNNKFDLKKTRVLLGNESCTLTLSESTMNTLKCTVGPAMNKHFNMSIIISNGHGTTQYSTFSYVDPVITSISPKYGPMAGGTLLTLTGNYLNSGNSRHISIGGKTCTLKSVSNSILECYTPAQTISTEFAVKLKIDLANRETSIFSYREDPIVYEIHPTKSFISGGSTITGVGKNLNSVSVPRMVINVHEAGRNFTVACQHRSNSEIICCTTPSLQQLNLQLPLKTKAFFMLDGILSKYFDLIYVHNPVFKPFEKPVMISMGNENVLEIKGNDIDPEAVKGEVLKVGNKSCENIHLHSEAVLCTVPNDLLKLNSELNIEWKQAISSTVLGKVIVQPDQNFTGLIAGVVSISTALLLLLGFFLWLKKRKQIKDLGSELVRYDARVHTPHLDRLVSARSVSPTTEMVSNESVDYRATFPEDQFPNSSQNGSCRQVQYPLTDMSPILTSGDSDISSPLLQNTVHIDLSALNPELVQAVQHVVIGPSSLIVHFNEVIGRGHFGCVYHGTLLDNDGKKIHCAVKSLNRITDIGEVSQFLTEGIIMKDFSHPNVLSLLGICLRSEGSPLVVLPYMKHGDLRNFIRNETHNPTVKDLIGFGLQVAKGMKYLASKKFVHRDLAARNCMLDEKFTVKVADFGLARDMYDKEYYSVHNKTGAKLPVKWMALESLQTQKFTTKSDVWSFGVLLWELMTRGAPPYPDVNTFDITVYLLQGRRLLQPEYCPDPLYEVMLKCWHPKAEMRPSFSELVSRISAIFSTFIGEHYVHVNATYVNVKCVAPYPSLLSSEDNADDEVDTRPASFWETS

B1: hucMet22Gv2.2 (antibody, V domains shown)
VH: QVQLVQSGAEVKKPGASVKVSCKASGYTFTDYNMDWVRQAPGQRLEWIGDLNPNNGATIYNQKFKGRATLTVDMSASTAYMELSSLRSEDTAVYYCARGNYYGNYYYLMDYWGQGTSVTVSS
VL: DIQMTQSPSSLSASVGDRVTITCRASENIYSTLAWYQQKPGKAPKLLVYAATNLADGVPSRFSGSGSGTDYTLTISSLQPEDFATYYCQHFWGTPYTFGQGTKVEIKR
- EC50 (read off the curve) [1]: 0.1 nM
- percent induction of NCI-H441 cell growth (WST-8), normalised to 100 ng/mL HGF [2]: 72%

B6: hucMET27Gv2.2 (antibody, human IgG1, kappa, V domains shown)
VH: EVQLVESGGGLVQPGGSLRLSCAASGFTFSSYDMSWVRQAPGKGLELVATINSNGVSIYYPDSVKGRFTISRDIAKNSLYLQMNSLRAEDTAVYYCAREEITTEMDYWGQGTLVTVSS
VL: EIVLTQSPATLSLSPGERATLSCRASESVDSYGNSFIHWYQQKPGQAPRLLIYRASNLESGIPARFSGSGSRTDFTLTISSLEPEDFAVYYCQQSNEEPLTFGQGTKVELKR
- EC50 (read off the curve) [3]: 0.2 nM

B7: hucMET27Gv2.1 (antibody, human IgG1, kappa, V domains shown)
VH: B6 VH with L47W, A49S, I74N
VL: B6 VL
- EC50 (read off the curve) [3]: 0.2 nM

B10: hucMET27Gv1.1 (antibody, human IgG1, kappa, V domains shown)
VH: B6 VH with L47W, A49S, I74N
VL: B6 VL with R72G
- EC50 (read off the curve) [3]: 0.2 nM

B13: hu247.22.2-SMCC-DM1 (antibody, human IgG1, kappa, V domains shown)
VH: EVQLVQSGAEVVKPGASVKIPCKASGYTFTDYNMDWVRQSPGKSLEWIGDLNPNNGATIYNEKFQGKATLTVDTSSSTAYMELRSLTSEDTAVYYCARGNYYGNYYYLMDYWGQGTSVTVSS
VL: DIQMTQSPSSLSVSVGERVTITCRASENIYSTLAWYQQKPGKSPKLLVYAATNLADGVPSRFSGSGSGTEYSLKINSLQPDDFGSYYCQHFWGTPYTFGGGTKLEIKR
modifications: DM1 linked through SMCC, average of 3-4 DM1 molecules per antibody; sites (heavy or light chain) not stated
- Kd [4]: 0.08 nM
- in vitro cytotoxicity in MET-expressing MKN45 cells, EC50 [2]: 0.07 nM

B14: hu247.22.2-SPDB-DM4 (antibody, human IgG1, kappa, V domains shown)
VH: B13 VH
VL: B13 VL
modifications: DM4 linked through SPDB; number and sites not stated for this conjugate
- Kd [4]: 0.07 nM

B15: hu247.22.2 (antibody, human IgG1, kappa, V domains shown)
VH: B13 VH
VL: B13 VL
- Kd [4]: 0.09 nM

More lines, now with the values ahead:

- EC50 (read off the curve) [1]: 0.2 nM
B2: hucMet22Gv2.2-DGN549 (antibody, human IgG1, kappa, V domains shown)
VH: B1 VH
VL: B1 VL
modifications: DGN549 conjugate; linkage site not stated for this antibody

- EC50 (read off the curve) [1]: 0.2 nM
B3: hucMet22Gv2.2-sSPDB-DM4 (antibody, human IgG1, kappa, V domains shown)
VH: B1 VH
VL: B1 VL
modifications: lysines linked to sSPDB-DM4, on average 3-4 DM4 per antibody

- EC50 (read off the curve) [1]: 0.3 nM
- EC50 (read off the curve) [3]: 0.4 nM
B4: hucMet27v1.2 (antibody, human IgG1, kappa, V domains shown)
VH: B6 VH with A40T, S78T, N84S, V93M, L113S
VL: DIVLTQSPASLAVSPGQRATISCRASESVDSYGNSFIHWYQQKPGQPPKLLIYRASNLESGIPARFSGSGSRTDFTLTINPVEANDVATYYCQQSNEEPLTFGGGTKLELKR

- EC50 (read off the curve) [1]: 0.2 nM
B5: hucMet27v1.2-sSPDB-DM4 (antibody, human IgG1, kappa, V domains shown)
VH: B6 VH with A40T, S78T, N84S, V93M, L113S
VL: B4 VL
modifications: lysines linked to sSPDB-DM4, on average 3-4 DM4 per antibody

- EC50 (read off the curve) [1]: 0.5 nM
- EC50 (read off the curve) [3]: 0.2 nM
B8: hucMet27Gv1.2 (antibody, human IgG1, kappa, V domains shown)
VH: B6 VH
VL: B6 VL with R72G

- EC50 (read off the curve) [1]: 0.4 nM
B9: hucMet27Gv1.2-DGN549 (antibody, human IgG1, kappa, V domains shown)
VH: B6 VH
VL: B6 VL with R72G
modifications: DGN549 conjugate; linkage site not stated for this antibody

- EC50 (read off the curve) [1]: 0.5 nM
B11: hucMet27Gv1.2-sSPDB-DM4 (antibody, human IgG1, kappa, V domains shown)
VH: B6 VH
VL: B6 VL with R72G
modifications: sSPDB-DM4 conjugate; preparation of this one not described

- EC50 (read off the curve) [1]: 0.4 nM
B12: hucMet27v1.2-DGN549 (antibody, human IgG1, kappa, V domains shown)
VH: B6 VH with A40T, S78T, N84S, V93M, L113S
VL: B4 VL
modifications: lysine-linked DGN549
